Experimental data published in US20090035321A1, “Intercellular adhesion molecules and their binding ligands” (Boehringer Ingelheim Pharmaceuticals, Inc., published 2009).

What was measured:
Experiment in all cases: COS cells on LFA-1 coated plastic
[1] = target: ICAM-1 A115N/SV (printed A155N/SV at paragraph 410) (human) (UniProt P05362)
[2] = target: ICAM-1 Q27/L (human, UniProt P05362)
[3] = target: ICAM-1 D71/E (human, UniProt P05362)
[4] = target: ICAM-1 Q62PM/API (human, UniProt P05362)
[5] = target: ICAM-1 D60/N (human, UniProt P05362)
[6] = target: ICAM-1 Q58/H (human, UniProt P05362)
[7] = target: ICAM-1 R88V/EA (human, UniProt P05362)
[8] = target: ICAM-1 K39KE/ERQ (human, UniProt P05362)
[9] = target: ICAM-1 K50V/EL (human, UniProt P05362)
[10] = target: ICAM-1 E34/A (human, UniProt P05362)
[11] = target: ICAM-1 Q73/H (human, UniProt P05362)
[12] = target: ICAM-1 Q58EDS/AKDI (human, UniProt P05362)
[13] = target: ICAM-1 N56V/HM (human, UniProt P05362)
[14] = target: ICAM-1 D213GL/HGV (human, UniProt P05362)
[15] = target: ICAM-1 M64/I (human, UniProt P05362)
[16] = target: ICAM-1 D203TQ/TAD (human, UniProt P05362)
[17] = target: ICAM-1 E111GGA/KAGS (human, UniProt P05362)
[18] = target: ICAM-1 E87/K (human, UniProt P05362)
[19] = target: ICAM-1 T20CS/ACT (human, UniProt P05362)
[20] = target: ICAM-1 R13/Q (human, UniProt P05362)
[21] = target: ICAM-1 G46NN/ASI (human, UniProt P05362)
[22] = target: ICAM-1 G101K/AN (human, UniProt P05362)
[23] = target: ICAM-1 D229QR/HLE (human, UniProt P05362)
[24] = target: ICAM-1 N156/E (human, UniProt P05362)
[25] = target: ICAM-1 D71GQS/NGEL (human, UniProt P05362)
[26] = target: ICAM-1 N48/H (human, UniProt P05362)
[27] = target: ICAM-1 D71/N (human, UniProt P05362)
[28] = target: ICAM-1 V136GE/GVK (human, UniProt P05362)
[29] = target: ICAM-1 R125/E (human, UniProt P05362)
[30] = target: ICAM-1 S24/A (human, UniProt P05362)
[31] = target: ICAM-1 R13/E (human, UniProt P05362)
[32] = target: ICAM-1 T75/A (human, UniProt P05362)
[33] = target: ICAM-1 K8/E (human, UniProt P05362)
[34] = target: ICAM-1 E254DE/KEK (human, UniProt P05362)
[35] = target: ICAM-1 V4/G (human, UniProt P05362)
[36] = target: ICAM-1 R13G/EA (human, UniProt P05362)
[37] = target: ICAM-1 S61/I (human, UniProt P05362)
[38] = target: ICAM-1 N118/Q (human, UniProt P05362)
[39] = target: ICAM-1 D60S/KL (human, UniProt P05362)
[40] = target: ICAM-1 Y83/S (human, UniProt P05362)
[41] = target: ICAM-1 Q1/E (human, UniProt P05362)
[42] = target: ICAM-1 N175/A (human, UniProt P05362)
[43] = target: ICAM-1 N68/K (human, UniProt P05362)
[44] = target: ICAM-1 R13/K (human, UniProt P05362)
[45] = target: ICAM-1 Y66/T (human, UniProt P05362)

- LFA-1 Binding % (% of wild type) [1]: 0
- LFA-1 Binding % (% of wild type) [2]: 37
- LFA-1 Binding % (% of wild type) [3]: 118
- LFA-1 Binding % (% of wild type) [4]: 104
- LFA-1 Binding % (% of wild type) [5]: 92
- LFA-1 Binding % (% of wild type) [6]: 109
- LFA-1 Binding % (% of wild type) [7]: 95
- LFA-1 Binding % (% of wild type) [8]: 99
- LFA-1 Binding % (% of wild type) [9]: 29
- LFA-1 Binding % (% of wild type) [10]: 0
- LFA-1 Binding % (% of wild type) [11]: 12
- LFA-1 Binding % (% of wild type) [12]: 3
- LFA-1 Binding % (% of wild type) [13]: 121
- LFA-1 Binding % (% of wild type) [14]: 90
- LFA-1 Binding % (% of wild type) [15]: 111
- LFA-1 Binding % (% of wild type) [16]: 91
- LFA-1 Binding % (% of wild type) [17]: 103
- LFA-1 Binding % (% of wild type) [18]: 65
- LFA-1 Binding % (% of wild type) [19]: 91
- LFA-1 Binding % (% of wild type) [20]: 78
- LFA-1 Binding % (% of wild type) [21]: 49
- LFA-1 Binding % (% of wild type) [22]: 97
- LFA-1 Binding % (% of wild type) [23]: 90
- LFA-1 Binding % (% of wild type) [24]: 60
- LFA-1 Binding % (% of wild type) [25]: 1
- LFA-1 Binding % (% of wild type) [26]: 88
- LFA-1 Binding % (% of wild type) [27]: 79
- LFA-1 Binding % (% of wild type) [28]: 92
- LFA-1 Binding % (% of wild type) [29]: 81
- LFA-1 Binding % (% of wild type) [30]: 80
- LFA-1 Binding % (% of wild type) [31]: 1
- LFA-1 Binding % (% of wild type) [32]: 59
- LFA-1 Binding % (% of wild type) [33]: 84
- LFA-1 Binding % (% of wild type) [34]: 122
- LFA-1 Binding % (% of wild type) [35]: 64
- LFA-1 Binding % (% of wild type) [36]: 2
- LFA-1 Binding % (% of wild type) [37]: 59
- LFA-1 Binding % (% of wild type) [38]: 54
- LFA-1 Binding % (% of wild type) [39]: 1
- LFA-1 Binding % (% of wild type) [40]: 42
- LFA-1 Binding % (% of wild type) [41]: 175
- LFA-1 Binding % (% of wild type) [42]: 67
- LFA-1 Binding % (% of wild type) [43]: 101
- LFA-1 Binding % (% of wild type) [44]: 98
- LFA-1 Binding % (% of wild type) [45]: 135
Substance: purified LFA-1, bound to plastic (from UniProt P20701) (receptor)
